Positions count from the first letter of the chain named.

B1: GIP130a (other)
chain: MRSRGSDTEGSAQKKFPRHTKGHSFQGPKNMKHRQQDKDSPSESDVILPCPKAEKPHSGNGHQAEDLSRDDLLFLLSILEGELQARDEVIGILKAEKMDLALLEAQYGFVTPKKVLEALQRDAFQAKSTPWQEDIYEKPMNELDKVVEKHKESYRRILGQLLVAEKSRRQTILELEEEKRKHKEYMEKSDEFICLLEQECERLKKLIDQEIKSQEEKEQEKEKRVTTLKEELTKLKSFALMVVDEQQRLTAQLTLQRQKIQELTTNAKETHTKLALAEARVQEEEQKATRLEKELQTQTTKFHQDQDTIMAKLTNEDSQNRQLQQKLAALSRQIDELEETNRSLRKAEEELQDIKEKISKGEYGNAGIMAEVEELRKRVLDMEGKDEELIKMEEQCRDLNKRLERETLQSKDFKLEVEKLSKRIMALEKLEDAFNKSKQECYSLKCNLEKERMTTKQLSQELESLKVRIKELEAIESRLEKTEFTLKEDLTKLKTLTVMFVDERKTMSEKLKKTEDKLQAASSQLQVEQNKVTTVTEKLIEETKRALKSKTDVEEKMYSVTKERDDLKNKLKAEEEKGNDLLSRVNMLKNRLQSLEAIEKDFLKNKLNQDSGKSTTALHQENNKIKELSQEVERLKLKLKDMKAIEDDLMKTEDEYETLERRYANERDKAQFLSKELEHVKMELAKYKLAEKTETSHEQWLFKRLQEEEAKSGHLSREVDALKEKIHEYMATEDLICHLQGDHSVLQKKLNQQENRNRDLGREIENLTKELERYRHFSKSLRPSLNGRRISDPQVFSKEVQTEAVDNEPPDYKSLIPLERAVINGQLYEESENQDEDPNDEGSVLSFKCSQSTPCPVNRKLWIPWMKSKEGHLQNGKMQTKPNANFVQPGDLVLSHTPGQPLHIKVTPDHVQNTATLEITSPTTESPHSYTSTAVIPNCGTPKQRITILQNASITPVKSKTSTEDLMNLEQGMSPITMATFARAQTPESCGSLTPERTMSPIQVLAVTGSASSPEQGRSPEPTEISAKHAIFRVSPDRQSSWQFQRSNSNSSSVITTEDNKIHIHLGSPYMQAVASPVRPASPSAPLQDNRTQGLINGALNKTTNKVTSSITITPTATPLPRQSQITVEPLLLPH
notes: Full length; tested as GAL4 domain fusion in yeast two-hybrid
B2: GIP130b (other)
chain: MRSRGSDTEGSAQKKFPRHTKGHSFQGPKNMKHRQQDKDSPSESDVILPCPKAEKPHSGNGHQAEDLSRDDLLFLLSILEGELQARDEVIGILKAEKMDLALLEAQYGFVTPKKVLEALQRDAFQAKSTPWQEDIYEKPMNELDKVVEKHKESYRRILGQLLVAEKSHRQTILELEEEKRKHKEYMEKSDEFICLLEQECERLKKLIDQEIKSQEEKEQEKEKRVTTLKEELTKLKSFALMVVDEQQRLTAQLTLQRQKIQELTTNAKETHTKLALAEARVQEEEQKATRLEKELQTQTTKFHQDQDTIMAKLTNEDSQNRQLQQKLAALSRQIDELEETNRSLRKAEEELQDIKEKISKGEYGNAGIMAEVEELRKRVLDMEGKDEELIKMEEQCRDLNKRLERETLQSKDFKLEVEKLSKRIMALEKLEDAFNKSKQECYSLKCNLEKERMTTKQLSQELESLKVRIKELEAIESRLEKTEFTLKEDLTKLKTLTVMFVDERKTMSEKLKKTEDKLQAASSQLQVEQNKVTTVTEKLIEETKRALKSKTDVEEKMYSVTKERDDLKNKLKAEEEKGNDLLSRVNMLKNRLQSLEAIEKDFLKNKLNQDSGKSTTALHQENNKIKELSQEVERLKLKLKDMKAIEDDLMKTEDEYETLERRYANERDKAQFLSKELEHVKMELAKYKLAEKTETSHEQWLFKRLQEEEAKSGHLSREVDALKEKIHEYMATEDLICHLQGDHSVLQKKLNQQENRNRDLGREIENLTKELERYRHFSKSLRPSLNGRRISDPQVFSKEVQTEAVDNEPPDYKSLIPLERAVINGQLYEESENQDEDPNDEGSVLSFKCSQSTPCPVNRKLWIPWMKSKEGHLQNGKMQTKPNANFVQPGDLVLSHTPGQPLHIKVTPDHVQNTATLEITSPTTESPHSYTSTAVIPNCGTPKQRITILQNASITPVKSKTSTEDLMNLEQGMSPITMATFARAQTPESCGSLTPERTMSPIQVLAVTGSASSPEQGRSPEPTEISAKHAIFRVSPDRQSSWQFQRSNSNSSSVITTEDNKIHIHLGSPYMQAVASPVRPASPSAPLQDNRTQGLINGALNKTTNKVTSSITITPTATPLPRQSQITVSNIYN
notes: as for B1
B3: GIP130c (other)
chain: B2 chain with H168R
notes: as for B1

What all share (experiment): yeast two-hybrid
The series “yeast two-hybrid” deals with the molecule itself.
For the series “GIP130c”, the target named is B3.
The series “GIP130a” concerns the target B1.

B1: the binding result in the series “yeast two-hybrid” is given as “binds”.
As for B2, the binding result in the series with GIP130c, in “yeast two-hybrid” and with GIP130a was “binds” throughout.
With B3, the binding result in “yeast two-hybrid” and in the series with GIP130a was “binds” each time.

Values taken from patent US20030108554A1 (published 2003).
